Changes are numbered by the printed parent chain. Names and notes keep the numbering of the source.
B1: CE115HA000 Y100W one-arm antibody (antibody, human IgG1, kappa, L234A L235A, N297A, name in Kabat numbering)
heavy: QVQLVESGGGVVQPGRSLRLSCAASGFTFSNAWMHWVRQAPGKGLEWVAQIKAKSNNYATYYAESVKGRFTISRDDSKNSLYLQMNSLKTEDTAVYYCRYVHYGAWYGVDAWGQGTTVTVSSASTKGPSVFPLAPSSKSTSGGTAALGCLVKDYFPEPVTVSWNSGALTSGVHTFPAVLQSSGLYSLSSVVTVPSSSLGTQTYICNVNHKPSNTKVDKKVEPKSCDKTHTCPPCPAPEAAGGPSVFLFPPKPKDTLMISRTPEVTCVVVDVSHEDPEVKFNWYVDGVEVHNAKTKPREEQYASTYRVVSVLTVLHQDWLNGKEYKCKVSNKALPAPIEKTISKAKGQPREPQVYTLPPSRCELTKNQVSLSCAVKGFYPSDIAVEWESNGQPENNYKTTPPVLDSDGSFFLVSKLTVDKSRWQQGNVFSCSVMHEALHNHYTQKSLSLSPDYKDDDDK
chain: EPKSSDKTHTCPPCPAPELLGGPSVFLFPPKPKDTLMISRTPEVTCVVVDVSHEDPEVKFNWYVDGVEVHNAKTKPREEQYNSTYRVVSVLTVLHQDWLNGKEYKCKVSNKALPAPIEKTISKAKGQPREPQVCTLPPSRDELTKNQVSLWCLVKGFYPSDIAVEWESNGQPENNYKTTPPVLDSDGSFFLYSKLTVDKSRWQQGNVFSCSVMHEALHNRYTQKSLSLSP
light: DIVMTQSPLSLPVTPGEPASISCRSSQSLVHSNRNTYLHWYQQKPGQAPRLLIYKVSNRFSGVPDRFSGSGSGTDFTLKISRVEAEDVGVYYCGQGTQVPYTFGQGTKLEIKRTVAAPSVFIFPPSDEQLKSGTASVVCLLNNFYPREAKVQWKVDNALQSGNSQESVTEQDSKDSTYSLSSTLTLSKADYEKHKVYACEVTHQGLSSPVTKSFNRGEC
notes: one-arm antibody (one Fab)
B2: CE115HA000 Y100aD one-arm antibody (antibody, human IgG1, kappa, L234A L235A, N297A, name in Kabat numbering)
heavy: B1 heavy with W106Y, Y107D
chain: B1 chain
light: B1 light
notes: one-arm antibody (one Fab)
B3: CE115HA000 Y100aK one-arm antibody (antibody, human IgG1, kappa, L234A L235A, N297A, name in Kabat numbering)
heavy: B1 heavy with W106Y, Y107K
chain: B1 chain
light: B1 light
notes: one-arm antibody (one Fab)
B4: CE115HA000 Y100aA one-arm antibody (antibody, human IgG1, kappa, L234A L235A, N297A, name in Kabat numbering)
heavy: B1 heavy with W106Y, Y107A
chain: B1 chain
light: B1 light
notes: one-arm antibody (one Fab)
B5: CE115HA000 Y100aG one-arm antibody (antibody, human IgG1, kappa, L234A L235A, N297A, name in Kabat numbering)
heavy: B1 heavy with W106Y, Y107G
chain: B1 chain
light: B1 light
notes: one-arm antibody (one Fab)
B6: CE115HA000 Y100aQ one-arm antibody (antibody, human IgG1, kappa, L234A L235A, N297A, name in Kabat numbering)
heavy: B1 heavy with W106Y, Y107Q
chain: B1 chain
light: B1 light
notes: one-arm antibody (one Fab)
B7: CE115HA000 Y100aS one-arm antibody (antibody, human IgG1, kappa, L234A L235A, N297A, name in Kabat numbering)
heavy: B1 heavy with W106Y, Y107S
chain: B1 chain
light: B1 light
notes: one-arm antibody (one Fab)
B8: CE115HA000 Y100aF one-arm antibody (antibody, human IgG1, kappa, L234A L235A, N297A, name in Kabat numbering)
heavy: B1 heavy with W106Y, Y107F
chain: B1 chain
light: B1 light
notes: one-arm antibody (one Fab)
B9: CE115HA000 Y100aL one-arm antibody (antibody, human IgG1, kappa, L234A L235A, N297A, name in Kabat numbering)
heavy: B1 heavy with W106Y, Y107L
chain: B1 chain
light: B1 light
notes: one-arm antibody (one Fab)
B10: CE115HA000 D101A one-arm antibody (antibody, human IgG1, kappa, L234A L235A, N297A, name in Kabat numbering)
heavy: B1 heavy with W106Y, D110A
chain: B1 chain
light: B1 light
notes: one-arm antibody
B11: CE115HA000 D73E one-arm antibody (antibody, human IgG1, kappa, L234A L235A, N297A, name in Kabat numbering)
heavy: B1 heavy with D76E, W106Y
chain: B1 chain
light: B1 light
notes: one-arm antibody
B12: CE115HA000 A99L one-arm antibody (antibody, human IgG1, kappa, L234A L235A, N297A, name in Kabat numbering)
heavy: B1 heavy with A105L, W106Y
chain: B1 chain
light: B1 light
notes: one-arm antibody
B13: CE115HA000 D72A one-arm antibody (antibody, human IgG1, kappa, L234A L235A, N297A, name in Kabat numbering)
heavy: B1 heavy with D75A, W106Y
chain: B1 chain
light: B1 light
notes: one-arm antibody
B14: CE115HA000 D72E one-arm antibody (antibody, human IgG1, kappa, L234A L235A, N297A, name in Kabat numbering)
heavy: B1 heavy with D75E, W106Y
chain: B1 chain
light: B1 light
notes: one-arm antibody
B15: CE115HA000 A99D one-arm antibody (antibody, human IgG1, kappa, L234A L235A, N297A, name in Kabat numbering)
heavy: B1 heavy with A105D, W106Y
chain: B1 chain
light: B1 light
notes: one-arm antibody
B16: CE115HA000 A99Y one-arm antibody (antibody, human IgG1, kappa, L234A L235A, N297A, name in Kabat numbering)
heavy: B1 heavy with A105Y, W106Y
chain: B1 chain
light: B1 light
notes: one-arm antibody
B17: CE115HA000 A102I one-arm antibody (antibody, human IgG1, kappa, L234A L235A, N297A, name in Kabat numbering)
heavy: B1 heavy with W106Y, A111I
chain: B1 chain
light: B1 light
notes: one-arm antibody
B18: CE115HA000 D73R one-arm antibody (antibody, human IgG1, kappa, L234A L235A, N297A, name in Kabat numbering)
heavy: B1 heavy with D76R, W106Y
chain: B1 chain
light: B1 light
notes: one-arm antibody
B19: CE115HA000 D73A one-arm antibody (antibody, human IgG1, kappa, L234A L235A, N297A, name in Kabat numbering)
heavy: B1 heavy with D76A, W106Y
chain: B1 chain
light: B1 light
notes: one-arm antibody
B20: CE115HA000 D73N one-arm antibody (antibody, human IgG1, kappa, L234A L235A, N297A, name in Kabat numbering)
heavy: B1 heavy with D76N, W106Y
chain: B1 chain
light: B1 light
notes: one-arm antibody
B21: CE115HA000 D73G one-arm antibody (antibody, human IgG1, kappa, L234A L235A, N297A, name in Kabat numbering)
heavy: B1 heavy with D76G, W106Y
chain: B1 chain
light: B1 light
notes: one-arm antibody
B22: CE115HA000 A102P one-arm antibody (antibody, human IgG1, kappa, L234A L235A, N297A, name in Kabat numbering)
heavy: B1 heavy with W106Y, A111P
chain: B1 chain
light: B1 light
notes: one-arm antibody
B23: CE115HA000 A99S one-arm antibody (antibody, human IgG1, kappa, L234A L235A, N297A, name in Kabat numbering)
heavy: B1 heavy with A105S, W106Y
chain: B1 chain
light: B1 light
notes: one-arm antibody
B24: CE115HA000 D73T one-arm antibody (antibody, human IgG1, kappa, L234A L235A, N297A, name in Kabat numbering)
heavy: B1 heavy with D76T, W106Y
chain: B1 chain
light: B1 light
notes: one-arm antibody
B25: CE115HA000 A99F one-arm antibody (antibody, human IgG1, kappa, L234A L235A, N297A, name in Kabat numbering)
heavy: B1 heavy with A105F, W106Y
chain: B1 chain
light: B1 light
notes: one-arm antibody
B26: CE115HA000 A99T one-arm antibody (antibody, human IgG1, kappa, L234A L235A, N297A, name in Kabat numbering)
heavy: B1 heavy with A105T, W106Y
chain: B1 chain
light: B1 light
notes: one-arm antibody
B27: CE115HA000 A99Q one-arm antibody (antibody, human IgG1, kappa, L234A L235A, N297A, name in Kabat numbering)
heavy: B1 heavy with A105Q, W106Y
chain: B1 chain
light: B1 light
notes: one-arm antibody
B28: CE115HA000 A102V one-arm antibody (antibody, human IgG1, kappa, L234A L235A, N297A, name in Kabat numbering)
heavy: B1 heavy with W106Y, A111V
chain: B1 chain
light: B1 light
notes: one-arm antibody
B29: CE115HA000 D72V one-arm antibody (antibody, human IgG1, kappa, L234A L235A, N297A, name in Kabat numbering)
heavy: B1 heavy with D75V, W106Y
chain: B1 chain
light: B1 light
notes: one-arm antibody
B30: CE115HA000 A99K one-arm antibody (antibody, human IgG1, kappa, L234A L235A, N297A, name in Kabat numbering)
heavy: B1 heavy with A105K, W106Y
chain: B1 chain
light: B1 light
notes: one-arm antibody
B31: CE115HA000 A102Y one-arm antibody (antibody, human IgG1, kappa, L234A L235A, N297A, name in Kabat numbering)
heavy: B1 heavy with W106Y, A111Y
chain: B1 chain
light: B1 light
notes: one-arm antibody
B32: CE115HA000 D73K one-arm antibody (antibody, human IgG1, kappa, L234A L235A, N297A, name in Kabat numbering)
heavy: B1 heavy with D76K, W106Y
chain: B1 chain
light: B1 light
notes: one-arm antibody

Each binder was assayed against T1, CD3 epsilon homodimer protein (UniProt P07766 23-126) (assay: SPR Biacore T200, CD3 epsilon homodimer on CM4 chip, antibody as analyte;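 also: Amine-coupled CD3 epsilon homodimer, run at 25 °C in HBS-EP+ buffer, ratio is bound amount of each single-residue H chain variant over that of the parent antibody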).
T1 construct: Immobilized on Sensor chip CM4 by amine coupling; construct not described; also called CD3 (CD3 epsilon)
T1 sequence (P07766 23-126): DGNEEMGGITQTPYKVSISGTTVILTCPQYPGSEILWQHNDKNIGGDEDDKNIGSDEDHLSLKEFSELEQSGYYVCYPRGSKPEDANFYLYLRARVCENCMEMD

ratio of amounts bound (Y/X vs CE115HA000)	Binder
1.03	B1
0.31	B2
0.9	B3
0.62	B4
1.23	B5
0.56	B6
0.64	B7
0.87	B8
0.48	B9

What follows are binders tested against T2, CD3 epsilon homodimer protein (UniProt P07766 23-126) (assay: SPR (Biacore T200), CD3 epsilon homodimer on CM4 chip, one-arm antibody as analyte; ratio to unaltered CE115HA000;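 also: surface plasmon resonance run at 25 °C with HBS-EP+ as running buffer, CD3 epsilon homodimer attached by amine coupling, antibody passed over as analyte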).
T2 construct: Construct of the homodimer protein is not described; also called CD3 (CD3 epsilon)
T2 sequence (P07766 23-126): as above

KD ratio (KD value of CE115HA000/KD value of the altered form)	Binder
0.86	B10
0.56	B11
1	B12
1.19	B13
0.73	B14
1.03	B15
1.25	B16
1.29	B17
0.79	B18
0.73	B19
0.7	B20
0.78	B21
3.51	B22
0.76	B23
0.78	B24
1.15	B25
0.93	B26
0.85	B27
1.27	B28
1.17	B29
1.4	B30
1	B31
0.74	B32
